Reference: patent publication US20240336701A1 (Novartis, published 2024)

T1: cynomolgus ENTPD2, full length, on cells (cynomolgus macaque, UniProt Q9Y5L3 1-495 (human entry))
T1 chain: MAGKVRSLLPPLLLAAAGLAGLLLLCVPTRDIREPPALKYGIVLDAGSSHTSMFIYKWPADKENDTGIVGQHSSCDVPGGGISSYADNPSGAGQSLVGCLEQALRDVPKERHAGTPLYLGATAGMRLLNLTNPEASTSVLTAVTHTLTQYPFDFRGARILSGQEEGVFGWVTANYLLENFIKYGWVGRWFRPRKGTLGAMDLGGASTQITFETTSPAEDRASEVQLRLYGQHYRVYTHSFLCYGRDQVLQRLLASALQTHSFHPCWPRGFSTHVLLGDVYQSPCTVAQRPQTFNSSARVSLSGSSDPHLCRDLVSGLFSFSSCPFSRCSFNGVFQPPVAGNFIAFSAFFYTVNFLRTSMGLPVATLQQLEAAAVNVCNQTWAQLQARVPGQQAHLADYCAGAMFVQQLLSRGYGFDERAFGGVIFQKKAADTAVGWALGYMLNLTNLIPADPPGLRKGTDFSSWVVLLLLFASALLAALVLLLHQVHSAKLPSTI

T2: human ENTPD2, full length, on cells (human, UniProt Q9Y5L3 1-495)
T2 sequence: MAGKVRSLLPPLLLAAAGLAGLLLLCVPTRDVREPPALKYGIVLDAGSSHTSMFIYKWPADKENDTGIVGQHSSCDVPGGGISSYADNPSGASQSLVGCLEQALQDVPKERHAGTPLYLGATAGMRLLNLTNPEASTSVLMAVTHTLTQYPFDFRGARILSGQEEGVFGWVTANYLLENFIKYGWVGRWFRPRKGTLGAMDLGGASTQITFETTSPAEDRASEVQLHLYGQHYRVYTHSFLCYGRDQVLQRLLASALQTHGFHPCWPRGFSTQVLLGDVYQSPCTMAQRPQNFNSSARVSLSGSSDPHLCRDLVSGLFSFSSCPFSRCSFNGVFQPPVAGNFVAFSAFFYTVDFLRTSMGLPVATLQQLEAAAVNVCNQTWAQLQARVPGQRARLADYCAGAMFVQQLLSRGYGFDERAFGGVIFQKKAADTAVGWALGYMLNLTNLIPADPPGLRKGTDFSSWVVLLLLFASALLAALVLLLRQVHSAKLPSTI

T3: mouse ENTPD2, full length, on cells (mouse, UniProt O55026 1-495)
T3 sequence: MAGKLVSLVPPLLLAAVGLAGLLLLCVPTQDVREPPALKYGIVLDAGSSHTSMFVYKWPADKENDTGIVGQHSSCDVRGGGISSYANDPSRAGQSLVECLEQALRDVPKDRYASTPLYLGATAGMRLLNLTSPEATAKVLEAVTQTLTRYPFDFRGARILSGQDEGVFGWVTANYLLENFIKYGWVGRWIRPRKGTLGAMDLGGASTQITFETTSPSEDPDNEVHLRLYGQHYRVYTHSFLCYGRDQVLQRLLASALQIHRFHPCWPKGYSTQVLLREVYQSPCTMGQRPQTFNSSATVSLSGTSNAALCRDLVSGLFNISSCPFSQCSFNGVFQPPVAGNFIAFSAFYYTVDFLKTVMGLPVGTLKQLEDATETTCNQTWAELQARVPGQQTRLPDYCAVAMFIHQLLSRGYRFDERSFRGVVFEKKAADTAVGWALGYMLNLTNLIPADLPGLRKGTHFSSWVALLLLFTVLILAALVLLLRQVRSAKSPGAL

B1: ANTI-HUMAN ENTPD2 MAB16 (antibody, human IgG1, kappa, V domains shown)
VH: DIQLQESGPGLVKPSQSLSLTCSVTGYSITSGYYWNWIRQFPGNKLEWMGYISYDGDNNYNPSLKNRISITRDTSKNQFFLKLSSVTTEDTATYYCAGGYYRYGLSYYYVMDYWGQGTSVTVSS
VL: DTVLTQSPASLAVSLGQRATISCKASQSVDYDGNSYMNWYQQKPGQPPKLLIYAASNLESGIPARFSGSGSGTDFTLNIHPVEEEDAATYYCQQSNEDPPTFGGGTKLEIKR
B2: ANTI-HUMAN ENTPD2 MAB1 (antibody, human IgG1, kappa, V domains shown)
VH: EVQLVQSGAEVKKPGESLKISCKASGYTFTDYNMDWVRQMPGKGLEWMGDINPKYDISTYNQQFKGQVTISADKSIRTAYLQWSSLKASDTAMYYCARRGFFLYYGINYYYFDVWGQGTLVTVSS
VL: DIQLTQSPSSLSASVGDRVTITCSASSSVSYIHWFQQKPGKAPKLLIYSTSNLASGVPSRFSGSGSGTFFTLTISSLQPEDFATYFCHQWSSYPWTFGQGTKVEIKR
B3: ANTI-mouse ENTPD2 MAB13 (antibody, mouse IgG2a, kappa, V domains shown)
VH: QVQLVQSGAELKQPGQSVKISCKASGYTFTHYGMNWVKQAPGQGLKWMGWINTDTGNPTYADDFKGRFVFSLDTSVSTAYLQISNLKNEDTATYYCVRYGTLYSGYGFFFDSWGQGTLVTVSS
VL: DIMMTQSPSSLSVSAGEKATITCKSSQSLFNSNTNKNYLNWYLQKPGQSPKLLFYYASTRHTGVPDRFIGSGSGTDFTLTITSVQDEDLADYYCQQWYSYPWTFGPGTKLEIKR
notes: also called Anti-ENTPD2 mAb13
B4: ANTI-mouse ENTPD2 MAB15 (antibody, mouse IgG2a, kappa, V domains shown)
VH: QVQLVQSGAELKQPGQSVKISCKASGYTFHHYGMNWVKQAPGQGLKWMGWINTDTGNPTYADDFKGRFVFSLDTSVSTAYLQISNLKNEDTATYYCVRYGTLYSGYGFFFDSWGQGTLVTVSS
VL: DIMMTQSPSSLSVSAGEKATITCKSSQSLFNSNTNKNYLNWYLQKPGQSPKLLFYYASTRHTGVPDRFIGSGSGTDFTLTITSVQDEDLADYYCQQWYSYPWTFGPGTKLEIKR
B5: ANTI-mouse ENTPD2 MAB14 (antibody, mouse IgG2a, kappa, V domains shown)
VH: QVQLVQSGAELKQPGQSVKISCKASGYTFWHYGMNWVKQAPGQGLKWMGWINTDTGNPTYADDFKGRFVFSLDTSVSTAYLQISNLKNEDTATYYCVRYGTLYSGYGFFFDSWGQGTLVTVSS
VL: DIMMTQSPSSLSVSAGEKATITCKSSQSLFNSNTNKNYLNWYLQKPGQSPKLLFYYASTRHTGVPDRFIGSGSGTDFTLTITSVQDEDLADYYCQQWYSYPWTFGPGTKLEIKR
B6: ANTI-HUMAN ENTPD2 MAB21 (antibody, human IgG1, kappa, V domains shown)
VH: EVQLQQSGPELVKPGASVKISCKTSGYTFTEYTMHWVKQSHGKSLEWIGGINPNNGITTYNQKFKGKATLTVDKSSSTAYMDLRSLTSEGSAVYYCARRGFPIYYYGTSLYYFDYWGQGTTLTVSS
VL: QIVLTQSPAIMSASLGEEITLTCSASSSVSYMHWYQQRSGTSPKLLIYTTSNLASGVPSRFSGSGSGTFYSLTISSVEAEDAADYYCHQWSSYPWTFGGGTKLEIKR
B7: ANTI-HUMAN ENTPD2 MAB17 (antibody, human IgG1, kappa, V domains shown)
VH: EVQLQQFGAELVKPGASVKISCKASGYTFTDYNMDWVKQSHGKSLEWIGDINPKYDISTYNQQFKGKATLTVDKSSSTAYMELRSLTSEDTAVYYCARRGFFLYYGINYYYFDVWGAGTTVTVSS
VL: QIVLTQSPAIMSASLGEEITLTCSASSSVSYIHWYQQKSGTSPTLLIYSTSNLASGVPSRFSGSGSGTFYSLTISSVEAEDAADYYCHQWSSYPWTFGGGTKLEIKR

Legend:
[1] = target: T1, cynomolgus ENTPD2, full length, on cells; assay: cell-based or functional assay
[2] = target: T2, human ENTPD2, full length, on cells; assay: cell-based or functional assay
[3] = target: recombinant human ENTPD2 extracellular domain (residues 29-462) with C-terminal Avi-His6 tag (human, UniProt Q9Y5L3 29-462); assay: cell-based or functional assay
[4] = target: T1, cynomolgus ENTPD2, full length, on cells; assay: FACS
[5] = target: T3, mouse ENTPD2, full length, on cells; assay: cell-based or functional assay
[6] = target: T2, human ENTPD2, full length, on cells; assay: flow cytometry on human ENTPD2 engineered B16LM3 clone B5 cells (human ENTPD2 expressed, endogenous mouse ENTPD2 knocked out); anti-mouse IgG-AF647 secondary. The text names the antibody as mAb13.

Row | Binder | Cyno ENTPD2 NIH/3T3 Assay % inhibition [1] [%] | Cyno ENTPD2 NIH/3T3 Assay IC50 [1] [nM] | Human ENTPD2 NIH/3T3 Assay % inhibition [2] [%] | Human ENTPD2 NIH/3T3 Assay IC50 [2] [nM] | ENTPD2 Biochemical Assay at 1 uM ATP IC50 [3] [nM] | RKO Assay % inhibition [2] [%] | RKO Assay IC50 [2] [nM] | binding result [4] | ENTPD2 Functional Assay IC50 (nM), mouse ENTPD2 NIH/3T3 cells [5] [nM] | binding result [6]
1 | B1 | 5 | > 133 | 30 | > 133 | 77.3 | – | – | – | – | –
2 | B2 | 91 | 4.1 | 92 | 1.1 | 0.52 | 97 | 0.8 | – | – | –
3 | B3 | – | – | – | – | – | – | – | no binding | 2.8 | no binding
4 | B4 | – | – | – | – | – | – | – | – | 5.9 | –
5 | B5 | – | – | – | – | – | – | – | – | 4.6 | –
6 | B6 | – | – | – | – | 0.87 | – | – | – | – | –
7 | B7 | 91 | 1 | 98 | 0.6 | 0.27 | 96 | 0.5 | – | – | –
